Among the data in patent US20220229068A1, “DETECTION OF PROTEIN TO PROTEIN INTERACTIONS” (THE GOVERNING COUNCIL OF THE UNIVERSITY OF TORONTO, priority 2019, published 2022) are PLU mean values, retold here.

Holding throughout (assay): SIMPL ELISA, bait-IN/prey-CIC
Assay [1] addresses T1, MCM5 (prey, CIC format) (human) (UniProt P33992).
T1 sequence (looked up): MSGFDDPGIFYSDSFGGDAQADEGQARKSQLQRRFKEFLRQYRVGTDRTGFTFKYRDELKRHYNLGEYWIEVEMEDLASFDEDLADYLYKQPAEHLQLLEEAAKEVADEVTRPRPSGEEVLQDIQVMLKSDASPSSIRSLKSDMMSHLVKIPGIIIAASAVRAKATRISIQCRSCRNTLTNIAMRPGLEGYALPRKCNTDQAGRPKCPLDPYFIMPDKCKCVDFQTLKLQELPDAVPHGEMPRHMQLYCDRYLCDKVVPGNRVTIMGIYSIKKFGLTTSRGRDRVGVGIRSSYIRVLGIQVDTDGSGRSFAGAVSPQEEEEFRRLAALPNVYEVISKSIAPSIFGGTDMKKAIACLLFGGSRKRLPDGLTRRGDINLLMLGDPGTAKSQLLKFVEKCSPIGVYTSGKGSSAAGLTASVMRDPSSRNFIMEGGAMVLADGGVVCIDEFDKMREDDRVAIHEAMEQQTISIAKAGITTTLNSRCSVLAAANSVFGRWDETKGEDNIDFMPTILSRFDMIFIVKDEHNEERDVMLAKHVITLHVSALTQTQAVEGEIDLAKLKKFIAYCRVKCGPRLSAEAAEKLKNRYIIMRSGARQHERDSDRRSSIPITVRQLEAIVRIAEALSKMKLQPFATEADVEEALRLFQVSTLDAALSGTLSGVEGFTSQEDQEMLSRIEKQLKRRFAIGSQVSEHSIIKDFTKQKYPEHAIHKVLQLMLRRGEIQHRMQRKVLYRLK

Assay [2] addresses T2, MAD1L1 (prey, CIC format) (human) (UniProt Q9Y6D9).
T2 sequence (looked up): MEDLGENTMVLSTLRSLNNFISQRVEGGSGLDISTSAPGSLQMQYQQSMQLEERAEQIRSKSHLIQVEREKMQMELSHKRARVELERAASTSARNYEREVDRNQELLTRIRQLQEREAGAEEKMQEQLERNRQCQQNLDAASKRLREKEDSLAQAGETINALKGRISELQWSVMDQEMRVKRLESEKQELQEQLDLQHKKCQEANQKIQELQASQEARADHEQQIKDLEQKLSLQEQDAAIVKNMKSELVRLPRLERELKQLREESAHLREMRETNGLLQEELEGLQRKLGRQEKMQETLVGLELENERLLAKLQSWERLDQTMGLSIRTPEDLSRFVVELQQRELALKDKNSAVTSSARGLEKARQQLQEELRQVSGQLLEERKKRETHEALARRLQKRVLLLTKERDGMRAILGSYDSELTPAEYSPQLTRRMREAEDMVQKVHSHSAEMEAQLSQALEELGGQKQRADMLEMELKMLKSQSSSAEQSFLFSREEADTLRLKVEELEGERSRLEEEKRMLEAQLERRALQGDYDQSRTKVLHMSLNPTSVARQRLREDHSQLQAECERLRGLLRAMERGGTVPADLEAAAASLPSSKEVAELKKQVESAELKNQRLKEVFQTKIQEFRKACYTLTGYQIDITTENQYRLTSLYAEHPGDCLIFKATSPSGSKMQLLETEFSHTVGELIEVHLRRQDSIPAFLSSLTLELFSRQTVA

Assay [3] addresses T3, NTF4 (prey, CIC format) (human) (UniProt P34130).
T3 sequence (looked up): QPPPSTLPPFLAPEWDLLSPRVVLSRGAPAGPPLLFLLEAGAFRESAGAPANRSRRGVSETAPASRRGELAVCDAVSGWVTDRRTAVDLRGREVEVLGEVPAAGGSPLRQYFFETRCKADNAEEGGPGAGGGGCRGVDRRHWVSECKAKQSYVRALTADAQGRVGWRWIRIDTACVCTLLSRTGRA

For assay [4], the target named is T4, FRS2 (prey, CIC format) (human) (UniProt Q8WU20).
T4 sequence (looked up): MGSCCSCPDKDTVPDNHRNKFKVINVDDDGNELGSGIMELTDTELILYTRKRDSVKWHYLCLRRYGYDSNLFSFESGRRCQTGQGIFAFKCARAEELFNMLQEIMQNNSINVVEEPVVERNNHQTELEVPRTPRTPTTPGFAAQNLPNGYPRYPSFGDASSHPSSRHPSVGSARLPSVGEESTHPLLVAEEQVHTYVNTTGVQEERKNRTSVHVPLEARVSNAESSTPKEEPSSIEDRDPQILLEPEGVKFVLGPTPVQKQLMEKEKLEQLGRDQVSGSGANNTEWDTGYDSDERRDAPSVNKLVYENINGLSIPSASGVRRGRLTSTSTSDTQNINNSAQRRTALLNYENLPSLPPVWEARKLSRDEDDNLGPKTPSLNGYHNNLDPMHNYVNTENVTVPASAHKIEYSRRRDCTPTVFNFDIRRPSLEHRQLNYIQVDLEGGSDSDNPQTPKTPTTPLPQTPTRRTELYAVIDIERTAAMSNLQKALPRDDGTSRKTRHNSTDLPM

Assay [5] addresses UBE2I (prey, CIC format) (human) (UniProt P63279).
Assay [6] deals with HBB (prey, CIC format) (human) (UniProt P68871).
For assay [7], the target named is T5, MCM10 (prey, CIC format) (human) (UniProt Q7L590).
T5 sequence (looked up): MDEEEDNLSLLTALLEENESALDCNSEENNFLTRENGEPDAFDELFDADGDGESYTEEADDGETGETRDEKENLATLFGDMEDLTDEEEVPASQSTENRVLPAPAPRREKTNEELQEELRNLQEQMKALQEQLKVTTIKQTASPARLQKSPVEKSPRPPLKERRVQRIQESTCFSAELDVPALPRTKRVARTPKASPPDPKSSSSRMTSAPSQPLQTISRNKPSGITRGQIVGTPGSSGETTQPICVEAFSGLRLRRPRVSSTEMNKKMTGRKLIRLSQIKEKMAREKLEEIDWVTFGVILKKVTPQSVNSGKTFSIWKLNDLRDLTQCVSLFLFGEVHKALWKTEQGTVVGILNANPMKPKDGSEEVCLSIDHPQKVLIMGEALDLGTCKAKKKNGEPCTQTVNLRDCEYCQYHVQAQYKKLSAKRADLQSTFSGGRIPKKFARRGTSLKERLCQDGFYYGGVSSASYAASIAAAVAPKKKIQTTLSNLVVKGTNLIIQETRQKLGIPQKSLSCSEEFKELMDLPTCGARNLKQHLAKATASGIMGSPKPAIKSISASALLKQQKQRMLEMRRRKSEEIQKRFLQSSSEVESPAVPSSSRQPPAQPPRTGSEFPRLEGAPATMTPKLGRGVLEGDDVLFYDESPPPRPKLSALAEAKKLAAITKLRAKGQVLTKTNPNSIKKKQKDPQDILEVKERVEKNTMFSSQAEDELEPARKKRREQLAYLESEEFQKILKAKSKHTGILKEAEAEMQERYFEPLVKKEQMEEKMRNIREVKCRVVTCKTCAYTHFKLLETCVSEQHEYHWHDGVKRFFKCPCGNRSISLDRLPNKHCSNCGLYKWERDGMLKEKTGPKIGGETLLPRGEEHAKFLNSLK

Assay [8] addresses T6, ORC4 (prey, CIC format) (human) (UniProt O43929).
T6 sequence (looked up): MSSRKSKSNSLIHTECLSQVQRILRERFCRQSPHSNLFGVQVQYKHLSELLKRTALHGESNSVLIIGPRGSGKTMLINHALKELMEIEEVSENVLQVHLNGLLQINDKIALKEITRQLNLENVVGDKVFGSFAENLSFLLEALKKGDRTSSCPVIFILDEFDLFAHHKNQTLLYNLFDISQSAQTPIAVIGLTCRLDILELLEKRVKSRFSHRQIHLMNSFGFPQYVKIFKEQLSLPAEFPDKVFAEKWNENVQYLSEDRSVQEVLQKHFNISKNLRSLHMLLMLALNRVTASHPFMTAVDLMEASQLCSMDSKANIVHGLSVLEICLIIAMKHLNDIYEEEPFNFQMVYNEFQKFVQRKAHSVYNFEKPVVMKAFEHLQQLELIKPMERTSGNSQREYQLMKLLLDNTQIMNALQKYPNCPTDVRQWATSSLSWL

Assay [9] has as its target EIF3E (prey, CIC format) (human) (UniProt P60228).
The target in assay [10] is RELA (prey, CIC format) (human) (UniProt Q04206).
RELA (prey, CIC format) (human), sequence (Q04206 whole entry): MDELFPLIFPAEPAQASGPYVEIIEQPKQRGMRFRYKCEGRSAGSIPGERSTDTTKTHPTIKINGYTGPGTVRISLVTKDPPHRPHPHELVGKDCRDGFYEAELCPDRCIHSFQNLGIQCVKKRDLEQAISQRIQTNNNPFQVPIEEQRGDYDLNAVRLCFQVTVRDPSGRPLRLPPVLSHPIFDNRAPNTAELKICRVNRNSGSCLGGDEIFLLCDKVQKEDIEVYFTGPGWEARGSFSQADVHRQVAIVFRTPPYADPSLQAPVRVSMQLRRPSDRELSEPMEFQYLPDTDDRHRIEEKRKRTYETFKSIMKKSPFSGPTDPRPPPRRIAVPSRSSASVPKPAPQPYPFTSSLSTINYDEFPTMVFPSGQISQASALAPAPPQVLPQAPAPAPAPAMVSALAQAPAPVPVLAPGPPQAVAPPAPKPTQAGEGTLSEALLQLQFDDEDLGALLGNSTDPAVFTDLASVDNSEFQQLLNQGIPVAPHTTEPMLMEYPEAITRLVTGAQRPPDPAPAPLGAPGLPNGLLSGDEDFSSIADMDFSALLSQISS

HBB (prey, CIC format) (human), sequence (P68871 whole entry): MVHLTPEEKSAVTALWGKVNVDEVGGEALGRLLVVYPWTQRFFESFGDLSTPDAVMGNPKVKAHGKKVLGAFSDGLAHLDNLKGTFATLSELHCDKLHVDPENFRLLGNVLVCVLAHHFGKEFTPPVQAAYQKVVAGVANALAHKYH
EIF3E (prey, CIC format) (human), sequence (P60228 whole entry): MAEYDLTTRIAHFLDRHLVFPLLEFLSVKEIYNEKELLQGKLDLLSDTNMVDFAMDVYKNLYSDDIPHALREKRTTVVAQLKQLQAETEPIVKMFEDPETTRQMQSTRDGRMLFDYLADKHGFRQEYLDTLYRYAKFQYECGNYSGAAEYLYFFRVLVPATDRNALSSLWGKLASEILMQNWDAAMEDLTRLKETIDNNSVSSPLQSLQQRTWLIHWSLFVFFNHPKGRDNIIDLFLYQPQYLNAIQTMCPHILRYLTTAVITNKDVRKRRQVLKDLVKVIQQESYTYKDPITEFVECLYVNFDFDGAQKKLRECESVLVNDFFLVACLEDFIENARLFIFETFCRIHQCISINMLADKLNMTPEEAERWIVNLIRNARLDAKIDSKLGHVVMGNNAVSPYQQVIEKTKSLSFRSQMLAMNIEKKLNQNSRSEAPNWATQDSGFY
UBE2I (prey, CIC format) (human), sequence (P63279 whole entry): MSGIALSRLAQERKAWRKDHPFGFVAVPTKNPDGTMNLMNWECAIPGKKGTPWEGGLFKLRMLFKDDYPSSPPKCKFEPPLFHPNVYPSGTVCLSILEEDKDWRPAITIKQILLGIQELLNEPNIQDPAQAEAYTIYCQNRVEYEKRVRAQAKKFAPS

B1: BDNF (bait, IN format) (ligand, human, UniProt P23560 19-247, looked up)
chain: APMKEANIRGQGGLAYPGVRTHGTLESVNGPKAGSRGLTSLADTFEHVIEELLDEDQKVRPNEENNKDADLYTSRVMLSSQVPLEPPLLFLLEEYKNYLDAANMSMRVRRHSDPARRGELSVCDSISEWVTAADKKTAVDMSGGTVTVLEKVPVSKGQLKQYFYETKCNPMGYTKEGCRGIDKRHWNSQCRTTQSYVRALTMDSKKRIGWRFIRIDTSCVCTLTIKRGR
As to B1, the PLU mean in [1] amounted to 0.22; in [2], 0.19; in [3], 0.629.

B2: PTPN11 (bait, IN format) (enzyme, human, UniProt Q06124 1-593, looked up)
chain: MTSRRWFHPNITGVEAENLLLTRGVDGSFLARPSKSNPGDFTLSVRRNGAVTHIKIQNTGDYYDLYGGEKFATLAELVQYYMEHHGQLKEKNGDVIELKYPLNCADPTSERWFHGHLSGKEAEKLLTEKGKHGSFLVRESQSHPGDFVLSVRTGDDKGESNDGKSKVTHVMIRCQELKYDVGGGERFDSLTDLVEHYKKNPMVETLGTVLQLKQPLNTTRINAAEIESRVRELSKLAETTDKVKQGFWEEFETLQQQECKLLYSRKEGQRQENKNKNRYKNILPFDHTRVVLHDGDPNEPVSDYINANIIMPEFETKCNNSKPKKSYIATQGCLQNTVNDFWRMVFQENSRVIVMTTKEVERGKSKCVKYWPDEYALKEYGVMRVRNVKESAAHDYTLRELKLSKVGQGNTERTVWQYHFRTWPDHGVPSDPGGVLDFLEEVHHKQESIMDAGPVVVHCSAGIGRTGTFIVIDILIDIIREKGVDCDIDVPKTIQMVRSQRSGMVQTEAQYRFIYMAVQHYIETLQRRIEEEQKSKRKGHEYTNIKYSLADQTSGDQSPLPPCTPTPPCAEMREDSARVYENVGLMQQQKSFR
As for B2, the PLU mean in assay [4] came out at 0.474.

B3: ORC2 (bait, IN format) (protein, human, UniProt Q13416 1-577, looked up)
chain: MSKPELKEDKMLEVHFVGDDDVLNHILDREGGAKLKKERAQLLVNPKKIIKKPEYDLEEDDQEVLKDQNYVEIMGRDVQESLKNGSATGGGNKVYSFQNRKHSEKMAKLASELAKTPQKSVSFSLKNDPEITINVPQSSKGHSASDKVQPKNNDKSEFLSTAPRSLRKRLIVPRSHSDSESEYSASNSEDDEGVAQEHEEDTNAVIFSQKIQAQNRVVSAPVGKETPSKRMKRDKTSDLVEEYFEAHSSSKVLTSDRTLQKLKRAKLDQQTLRNLLSKVSPSFSAELKQLNQQYEKLFHKWMLQLHLGFNIVLYGLGSKRDLLERFRTTMLQDSIHVVINGFFPGISVKSVLNSITEEVLDHMGTFRSILDQLDWIVNKFKEDSSLELFLLIHNLDSQMLRGEKSQQIIGQLSSLHNIYLIASIDHLNAPLMWDHAKQSLFNWLWYETTTYSPYTEETSYENSLLVKQSGSLPLSSLTHVLRSLTPNARGIFRLLIKYQLDNQDNPSYIGLSFQDFYQQCREAFLVNSDLTLRAQLTEFRDHKLIRTKKGTDGVEYLLIPVDNGTLTDFLEKEEEEA
B3: the PLU mean in assay [5] worked out at 0.119; in [6] it was 0.227; in [7], 0.43; in assay [8], 0.297.

B4: IFIT1 (bait, IN format) (protein, human, UniProt P09914 1-478, looked up)
chain: MSTNGDDHQVKDSLEQLRCHFTWELSIDDDEMPDLENRVLDQIEFLDTKYSVGIHNLLAYVKHLKGQNEEALKSLKEAENLMQEEHDNQANVRSLVTWGNFAWMYYHMGRLAEAQTYLDKVENICKKLSNPFRYRMECPEIDCEEGWALLKCGGKNYERAKACFEKVLEVDPENPESSAGYAISAYRLDGFKLATKNHKPFSLLPLRQAVRLNPDNGYIKVLLALKLQDEGQEAEGEKYIEEALANMSSQTYVFRYAAKFYRRKGSVDKALELLKKALQETPTSVLLHHQIGLCYKAQMIQIKEATKGQPRGQNREKLDKMIRSAIFHFESAVEKKPTFEVAHLDLARMYIEAGNHRKAEENFQKLLCMKPVVEETMQDIHFHYGRFQEFQKKSDVNAIIHYLKAIKIEQASLTRDKSINSLKKLVLRKLRRKALDLESLSLLGFVYKLEGNMNEALEYYERALRLAADFENSVRQGP
Take B4: the PLU mean in assay [9] was determined as 0.676; in assay [10] it was 0.328.
